Reference: paper doi:10.1101/388868, “Heterodimerization of UNC-13/RIM regulates synaptic vesicle release probability but not priming” (bioRxiv, 2018)
Substitutions are numbered along the chain they refer to. Names and notes keep the numbering of the source.

T1: C. elegans UNC-13 long isoform residues 1-258 bearing the K49E mutation (C. elegans)
T1 chain: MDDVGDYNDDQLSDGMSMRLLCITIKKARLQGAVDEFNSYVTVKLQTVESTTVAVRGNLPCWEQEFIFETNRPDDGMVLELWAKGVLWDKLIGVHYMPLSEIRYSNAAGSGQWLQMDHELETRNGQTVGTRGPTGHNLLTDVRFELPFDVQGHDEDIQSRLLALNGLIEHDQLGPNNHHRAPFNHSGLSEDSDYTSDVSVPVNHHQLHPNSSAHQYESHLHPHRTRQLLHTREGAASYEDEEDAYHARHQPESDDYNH

B1: C. elegans UNC-10 residues 62-121 WT (domain or fragment)
chain: KLVGTQDDAICQICQKTKFADGIGHKCFYCQLRSCARCGGRAQSKNKAIWACSLCQKRQQ
B2: UNC-13L C2A domain, wild type (recombinant, gel filtration) (domain or fragment)
chain: T1 chain with E49K

Legend:
[1] = target: T1, C. elegans UNC-13 long isoform residues …; assay: ITC
[2] = target: the molecule itself; assay: SEC; gel filtration of purified UNC-13L C2A, wild type or K49E; calibrated with alcohol dehydrogenase (150 kDa), bovine serum albumin (66 kDa) and carbonic anhydrase (29 kDa); void volume 10.78mL

Binder | Ka [1] | stoichiometry N [2]
B1 | 789000 M⁻¹ | –
B2 | – | 2
